Tested on: Escherichia coli TOP10
Test: shrunken log2 fold change of peptide-encoding DNA abundance (4.5 h post-induction vs induction); higher = less antimicrobial activity (less host growth inhibition)
Details: time post-induction: 4.5 h; library: site-saturation at positions 5, 18, 19, 20
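Further: peptides expressed intracellularly from a pBAD plasmid library in pooled LB shake-flask culture, induced with 0.3% L-arabinose, DNA abundance read by NGS, three biological replicates, DESeq2 with apeglm shrinkage.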

Sequence | shrunken log2 fold change
RRIRIRPPRLPRPRPRPPPMPRP | 0.377
RRIRIRPPRLPRPRPRPPPWPRP | 0.508
RRIRIRPPRLPRPRPRPPQNPRP | -0.33
RRIRIRPPRLPRPRPRPPRTPRP | 0.195
RRIRIRPPRLPRPRPRPPVLPRP | 0.328
RRIRIRPPRLPRPRPRPPWDPRP | 0.0808
RRIRIRPPRLPRPRPRPPWPPRP | 0.397
RRIRIRPPRLPRPRPRPPWRPRP | 0.507
RRIRIRPPRLPRPRPRPPWYPRP | -0.394
RRIRIRPPRLPRPRPRPPYEPRP | -0.315
RRIRIRPPRLPRPRPRPPYGPRP | -0.202
RRIRIRPPRLPRPRPRPQADPRP | -0.0941
RRIRIRPPRLPRPRPRPQCGPRP | 0.0719
RRIRIRPPRLPRPRPRPQCKPRP | -0.532
RRIRIRPPRLPRPRPRPQEVPRP | 0.0526
RRIRIRPPRLPRPRPRPQFAPRP | -0.0319
RRIRIRPPRLPRPRPRPQFGPRP | 1.74
RRIRIRPPRLPRPRPRPQGRPRP | -0.25
RRIRIRPPRLPRPRPRPQGWPRP | -0.00188
RRIRIRPPRLPRPRPRPQHIPRP | -0.542
RRIRIRPPRLPRPRPRPQHLPRP | -0.542
RRIRIRPPRLPRPRPRPQIGPRP | -0.451
RRIRIRPPRLPRPRPRPQIHPRP | -0.796
RRIRIRPPRLPRPRPRPQMPPRP | -0.662
RRIRIRPPRLPRPRPRPQNYPRP | -0.428

Sequence | shrunken log2 fold change
RRIRIRPPRLPRPRPRPQPCPRP | -0.0143
RRIRIRPPRLPRPRPRPQQMPRP | -0.0189
RRIRIRPPRLPRPRPRPQRCPRP | -0.0109
RRIRIRPPRLPRPRPRPQSHPRP | -0.383
RRIRIRPPRLPRPRPRPQSVPRP | -0.295
RRIRIRPPRLPRPRPRPQTAPRP | 0.101
RRIRIRPPRLPRPRPRPQTHPRP | -0.412
RRIRIRPPRLPRPRPRPQTIPRP | -0.337
RRIRIRPPRLPRPRPRPQVSPRP | -0.21
RRIRIRPPRLPRPRPRPQVWPRP | -0.0966
RRIRIRPPRLPRPRPRPQWFPRP | -0.0117
RRIRIRPPRLPRPRPRPQWIPRP | 3.04
RRIRIRPPRLPRPRPRPQWVPRP | -0.023
RRIRIRPPRLPRPRPRPQWYPRP | -0.485
RRIRIRPPRLPRPRPRPRCCPRP | -0.181
RRIRIRPPRLPRPRPRPRCIPRP | -0.44
RRIRIRPPRLPRPRPRPRDCPRP | -0.296
RRIRIRPPRLPRPRPRPRDMPRP | -0.902
RRIRIRPPRLPRPRPRPRDRPRP | -0.0241
RRIRIRPPRLPRPRPRPREFPRP | 0.0231
RRIRIRPPRLPRPRPRPRFLPRP | -0.216
RRIRIRPPRLPRPRPRPRFMPRP | -0.143
RRIRIRPPRLPRPRPRPRGRPRP | 0.229
RRIRIRPPRLPRPRPRPRGTPRP | 0.277
RRIRIRPPRLPRPRPRPRHDPRP | -0.385

Sequence | shrunken log2 fold change
RRIRIRPPRLPRPRPRPRHKPRP | -0.704
RRIRIRPPRLPRPRPRPRKMPRP | 0.142
RRIRIRPPRLPRPRPRPRLRPRP | -0.0272
RRIRIRPPRLPRPRPRPRMNPRP | -0.593
RRIRIRPPRLPRPRPRPRNFPRP | -0.283
RRIRIRPPRLPRPRPRPRQPPRP | -0.0694
RRIRIRPPRLPRPRPRPRRHPRP | -0.147
RRIRIRPPRLPRPRPRPRTFPRP | -0.143
RRIRIRPPRLPRPRPRPRVPPRP | 1.5
RRIRIRPPRLPRPRPRPRYCPRP | -0.157
RRIRIRPPRLPRPRPRPSADPRP | -0.235
RRIRIRPPRLPRPRPRPSAIPRP | -0.0599
RRIRIRPPRLPRPRPRPSCTPRP | -0.407
RRIRIRPPRLPRPRPRPSDHPRP | -0.91
RRIRIRPPRLPRPRPRPSGIPRP | -0.469
RRIRIRPPRLPRPRPRPSGLPRP | 0.0161
RRIRIRPPRLPRPRPRPSGRPRP | -0.427
RRIRIRPPRLPRPRPRPSHLPRP | -0.622
RRIRIRPPRLPRPRPRPSHTPRP | -0.595
RRIRIRPPRLPRPRPRPSIPPRP | -0.867
RRIRIRPPRLPRPRPRPSLDPRP | -0.564
RRIRIRPPRLPRPRPRPSLTPRP | -1.12
RRIRIRPPRLPRPRPRPSMRPRP | -0.000106
RRIRIRPPRLPRPRPRPSMSPRP | -0.6
RRIRIRPPRLPRPRPRPSMVPRP | -0.654
